This passage reports protein stability index results from the supplement of paper PMC10567573.

Sequences and labels used below:
B1: SNAP91 (parent)
chain: FATASAAVPVSTSKPSSDLLDLQP
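Further: lentivirally expressed fusions sorted by FACS into six bins by GFP to DsRed ratio, PSI derived from sequencing read proportions per bin multiplied by bin number.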

Variants of B1 are the subject of this series. Briefly: protein stability index of a GFP-peptide fusion (GPS, HEK-293T) (PSI 1-6); higher = more stable. The conditions noted are these: c terminus: a fixed tail appended.
For FATASAAVPVSNSKPSSDLLDLQP [T12N], the protein stability index worked out at 3.7.
To FATASAAVPVSPSKPSSDLLDLQP [T12P] belongs 2.1; to FATASAAVPVSMSKPSSDLLDLQP [T12M], 2.78.
Take FATASAAVPVSRSKPSSDLLDLQP [T12R]: the protein stability index is 3.13.
For FATASAAVPVSQSKPSSDLLDLQP [T12Q], the protein stability index was 3.97.
FATASAAVPVSFSKPSSDLLDLQP [T12F]: the protein stability index stood at 3.07.
Take FATASAAVPVSWSKPSSDLLDLQP [T12W]: the protein stability index came to 2.61.
For the variant FATASAAVPVSESKPSSDLLDLQP [T12E], the protein stability index was found to be 4.44.
For the variant FATASAAVPVSKSKPSSDLLDLQP [T12K], the protein stability index is 3.61.
For the variant FATASAAVPVSSSKPSSDLLDLQP [T12S], the protein stability index stood at 4.49.
As for FATASAAVPVSGSKPSSDLLDLQP [T12G], the protein stability index amounted to 3.91.
For FATASAAVPVSVSKPSSDLLDLQP [T12V], the protein stability index was 3.73.
As for FATASAAVPVSISKPSSDLLDLQP [T12I], the protein stability index worked out at 3.51.
With FATASAAVPVSYSKPSSDLLDLQP [T12Y], the protein stability index turned out to be 3.28.
FATASAAVPVSHSKPSSDLLDLQP [T12H]: the protein stability index was found to be 4.3.
The value for FATASAAVPVSLSKPSSDLLDLQP [T12L] was 3.74; that for FATASAAVPVSTSPPSSDLLDLQP [K14P] was 4.15.
With FATASAAVPVSTSRPSSDLLDLQP [K14R], the protein stability index turned out to be 3.87.
As for FATASAAVPVSTSMPSSDLLDLQP [K14M], the protein stability index was 3.48.
As to FATASAAVPVSTSHPSSDLLDLQP [K14H], the protein stability index amounted to 3.58.
As for FATASAAVPVSTSYPSSDLLDLQP [K14Y], the protein stability index was 3.21.
For the variant FATASAAVPVSTSNPSSDLLDLQP [K14N], the protein stability index was found to be 3.89.
Take FATASAAVPVSTSIPSSDLLDLQP [K14I]: the protein stability index turned out to be 3.5.
In the case of FATASAAVPVSTSQPSSDLLDLQP [K14Q], the protein stability index turned out to be 4.61.
Take FATASAAVPVSTSDPSSDLLDLQP [K14D]: the protein stability index was 4.36.
To FATASAAVPVSTSEPSSDLLDLQP [K14E] belongs 4.45; to FATASAAVPVSTSTPSSDLLDLQP [K14T], 3.97; to FATASAAVPVSTSSPSSDLLDLQP [K14S], 4.01.
As to FATASAAVPVSTSWPSSDLLDLQP [K14W], the protein stability index worked out at 2.03.
To FATASAAVPVSTSAPSSDLLDLQP [K14A] belongs 4.16; to FATASAAVPVSTSCPSSDLLDLQP [K14C], 3.61.
Take FATASAAVPVSTSLPSSDLLDLQP [K14L]: the protein stability index is 3.64.
As to FATASAAVPVSTSGPSSDLLDLQP [K14G], the protein stability index worked out at 3.97.
To FATASAAVPVSTSVPSSDLLDLQP [K14V] belongs 4.05.
The value for FATASAAVPVSTSFPSSDLLDLQP [K14F] was 2.6.
As to FATASAAVPVSTSKPSADLLDLQP [S17A], the protein stability index turned out to be 3.68.
On to FATASAAVPVSTSKPSCDLLDLQP [S17C], for which the protein stability index is 3.41.
Consider FATASAAVPVSTSKPISDLLDLQP [S16I], for which the protein stability index was 3.24.
For FATASAAVPVSTSKPMSDLLDLQP [S16M], the protein stability index was 3.43.
Take FATASAAVPVSTSKPPSDLLDLQP [S16P]: the protein stability index turned out to be 3.5.
On to FATASAAVPVSTSKPDSDLLDLQP [S16D], for which the protein stability index is 4.24.
With FATASAAVPVSTSKPHSDLLDLQP [S16H], the protein stability index was found to be 3.71.
Regarding FATASAAVPVSTSKPGSDLLDLQP [S16G], the protein stability index came to 3.57.
The value for FATASAAVPVSTSKPWSDLLDLQP [S16W] was 1.54; that for FATASAAVPVSTSKPESDLLDLQP [S16E] was 3.87.
On to FATASAAVPVSTSKPCSDLLDLQP [S16C], for which the protein stability index came to 3.36.
The value for FATASAAVPVSTSKPRSDLLDLQP [S16R] was 3.3; that for FATASAAVPVSTSKPKSDLLDLQP [S16K] was 3.43.
In the case of FATASAAVPVSTSKPYSDLLDLQP [S16Y], the protein stability index turned out to be 3.08.
To FATASAAVPVSTSKPFSDLLDLQP [S16F] belongs 2.99.
With FATASAAVPVSTSKPNSDLLDLQP [S16N], the protein stability index was 3.81.
The value for FATASAAVPVSTSKPASDLLDLQP [S16A] was 4.02; that for FATASAAVPVSTSKPQSDLLDLQP [S16Q] was 3.93; that for FATASAAVPVSTSKPTSDLLDLQP [S16T] was 3.03.
The value for FATASAAVPVSTSKPVSDLLDLQP [S16V] was 3.6; that for FATASAAVPVSTSKPLSDLLDLQP [S16L] was 2.83; that for FATASAAVPVSTRKPSSDLLDLQP [S13R] was 3.94.
As for FATASAAVPVSTAKPSSDLLDLQP [S13A], the protein stability index stood at 3.82.
With FATASAAVPVSTGKPSSDLLDLQP [S13G], the protein stability index was 3.95.
In the case of FATASAAVPVSTQKPSSDLLDLQP [S13Q], the protein stability index is 3.8.
On to FATASAAVPVSTFKPSSDLLDLQP [S13F], for which the protein stability index worked out at 3.22.
Regarding FATASAAVPVSTWKPSSDLLDLQP [S13W], the protein stability index was 2.67.
On to FATASAAVPVSTMKPSSDLLDLQP [S13M], for which the protein stability index worked out at 3.67.
In the case of FATASAAVPVSTYKPSSDLLDLQP [S13Y], the protein stability index came to 3.36.
On to FATASAAVPVSTNKPSSDLLDLQP [S13N], for which the protein stability index is 3.66.
In the case of FATASAAVPVSTPKPSSDLLDLQP [S13P], the protein stability index was determined as 3.83.
As to FATASAAVPVSTHKPSSDLLDLQP [S13H], the protein stability index was 3.66.
In the case of FATASAAVPVSTCKPSSDLLDLQP [S13C], the protein stability index came out at 2.57.
FATASAAVPVSTKKPSSDLLDLQP [S13K]: the protein stability index is 3.72.
In the case of FATASAAVPVSTIKPSSDLLDLQP [S13I], the protein stability index worked out at 3.42.
In the case of FATASAAVPVSTDKPSSDLLDLQP [S13D], the protein stability index was 3.62.
Turning to FATASAAVPVSTVKPSSDLLDLQP [S13V], the protein stability index came to 3.52.
In the case of FATASAAVPVSTEKPSSDLLDLQP [S13E], the protein stability index turned out to be 3.67.
Consider FATASAAVPVSTLKPSSDLLDLQP [S13L], for which the protein stability index is 3.09.
For FATASAAVPVSTTKPSSDLLDLQP [S13T], the protein stability index worked out at 3.38.
For the variant FATASAAVPVSTSKDSSDLLDLQP [P15D], the protein stability index was found to be 4.17.
The value for FATASAAVPVSTSKWSSDLLDLQP [P15W] was 2.19.
For the variant FATASAAVPVSTSKKSSDLLDLQP [P15K], the protein stability index stood at 3.57.
The value for FATASAAVPVSTSKGSSDLLDLQP [P15G] was 3.97; that for FATASAAVPVSTSKCSSDLLDLQP [P15C] was 3.15; that for FATASAAVPVSTSKISSDLLDLQP [P15I] was 3.52.
In the case of FATASAAVPVSTSKHSSDLLDLQP [P15H], the protein stability index amounted to 3.96.
For the variant FATASAAVPVSTSKSSSDLLDLQP [P15S], the protein stability index was 3.73.
On to FATASAAVPVSTSKESSDLLDLQP [P15E], for which the protein stability index stood at 4.89.
In the case of FATASAAVPVSTSKNSSDLLDLQP [P15N], the protein stability index came out at 3.85.
The value for FATASAAVPVSTSKTSSDLLDLQP [P15T] was 3.74; that for FATASAAVPVSTSKASSDLLDLQP [P15A] was 3.28; that for FATASAAVPVSTSKLSSDLLDLQP [P15L] was 2.72.
To FATASAAVPVSTSKQSSDLLDLQP [P15Q] belongs 3.44; to FATASAAVPVSTSKFSSDLLDLQP [P15F], 2.54.
Consider FATASAAVPVSTSKMSSDLLDLQP [P15M], for which the protein stability index was determined as 3.17.
For the variant FATASAAVPVSTSKVSSDLLDLQP [P15V], the protein stability index is 3.14.
To FATASAAVPVSTSKRSSDLLDLQP [P15R] belongs 2.9; to FATASAAVPVSTSKYSSDLLDLQP [P15Y], 2.99.
